According to PMC6823292, “Molecular structure of human synaptonemal complex protein SYCE1” (Chromosoma, 2019):

Molecular target: the molecule itself
Test: SEC-MALS; 6–20 mg/ml loaded on Superdex 200 Increase 10/300 GL in 20 mM Tris pH 8.0, 150 mM KCl, 2 mM DTT

Row | Protein | stoichiometry N
1 | human SYCE1 core (amino acids 25–179) (domain or fragment, UniProt Q8N0S2 25-179, looked up, also called SYCE1 structural core; source: E. coli BL21(DE3), purified (amylose, anion exchange, TEV cleavage, anion exchange, SEC); not shown: His, N-terminal, cleaved; MBP, N-terminal, cleaved) GQDTSSQKIEDLMEMVQKLQKVGSLEPRVEVLINRINEVQQAKKKANKDLGEARTICEALQKELDSLHGEKVHLKEILSKKQETLRILRLHCQEKESEAHRKHTMLQECKERISALNLQIEEEKNKQRQLRLAFEEQLEDLMGQHKDLWDFHMPE | 2
2 | human SYCE1 full length (amino acids 1–351) (natural protein, UniProt Q8N0S2 1-351, looked up, synaptonemal complex central element protein 1 (SYCE1), human, full length, amino acids 1–351; also called full-length SYCE1; source: E. coli BL21(DE3), purified (amylose, anion exchange, TEV cleavage, anion exchange, SEC); not shown: His, N-terminal, cleaved; MBP, N-terminal, cleaved) MAGRSLTSKAEPTAGAVDRAEKAGGQDTSSQKIEDLMEMVQKLQKVGSLEPRVEVLINRINEVQQAKKKANKDLGEARTICEALQKELDSLHGEKVHLKEILSKKQETLRILRLHCQEKESEAHRKHTMLQECKERISALNLQIEEEKNKQRQLRLAFEEQLEDLMGQHKDLWDFHMPERLAKEICALDSSKEQLLKEEKLVKATLEDVKHQLCSLCGAEGPSTLDEGLFLRSQEAAATVQLFQEEHRKAEELLAAAAQRHQQLQQKCQQQQQKRQRLKEELEKHGMQVPAQAQSTQEEEAGPGDVASPKPLKGERPGAAHQAGPDVLIGQEDTLHPDLSPRGFQEIKELF | 2
3 | MBP-SYCE1 (N-terminal MBP fusion of SYCE1 core, amino acids 25–179) (domain or fragment, human, UniProt Q8N0S2 25-179, looked up, pMAT11 gives a His-MBP fusion with a TEV site; source: E. coli BL21(DE3), purified; not shown: MBP, N-terminal, kept) GQDTSSQKIEDLMEMVQKLQKVGSLEPRVEVLINRINEVQQAKKKANKDLGEARTICEALQKELDSLHGEKVHLKEILSKKQETLRILRLHCQEKESEAHRKHTMLQECKERISALNLQIEEEKNKQRQLRLAFEEQLEDLMGQHKDLWDFHMPE | 2
4 | SYCE1-MBP (C-terminal MBP fusion of SYCE1 core, amino acids 25–179) (domain or fragment, human, UniProt Q8N0S2 25-179, looked up, source: E. coli BL21(DE3), purified; not shown: MBP, C-terminal, kept) GQDTSSQKIEDLMEMVQKLQKVGSLEPRVEVLINRINEVQQAKKKANKDLGEARTICEALQKELDSLHGEKVHLKEILSKKQETLRILRLHCQEKESEAHRKHTMLQECKERISALNLQIEEEKNKQRQLRLAFEEQLEDLMGQHKDLWDFHMPE | 2
5 | MBP-SYCE1-MBP (N- and C-terminal MBP double fusion of SYCE1 core, amino acids 25–179) (domain or fragment, human, UniProt Q8N0S2 25-179, looked up, source: E. coli BL21(DE3), purified; not shown: MBP, N-terminal, kept; MBP, C-terminal, kept) GQDTSSQKIEDLMEMVQKLQKVGSLEPRVEVLINRINEVQQAKKKANKDLGEARTICEALQKELDSLHGEKVHLKEILSKKQETLRILRLHCQEKESEAHRKHTMLQECKERISALNLQIEEEKNKQRQLRLAFEEQLEDLMGQHKDLWDFHMPE | 2
